Data from the RNAGym collection of RNA variant scans (doi:10.1073/pnas.2313332121).

B1: TPR t1 (parent)
chain: GACCAAUCUGCCCUCAGAGCUCGAGAACAUCUUCGGAUGCAGAGGAGGCAGGCUUCGGUGGCGCGAUAGCGCCAACGUCCUCAACCUCCAAUGCAUCCCACCACAUGAUGAUGCCUGAAGAGCCUUGGUUUUUUG

Variants of: B1
Assay: polymerase ribozyme fitness, log enrichment relative to wild type (log ratio); higher = more active; in vitro selection for triplet polymerase activity
How it was run: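 One round of in vitro selection, in triplicate, was applied to PCR-built, transcribed mutant libraries of each subunit of a heterodimeric triplet polymerase ribozyme. The steps were annealing with a biotinylated primer, partner subunit and triplets, incubation frozen at −7 °C, gel excision of extended constructs, streptavidin-bead capture and RT-PCR. Fitness is the logarithm, base 2, of genotype enrichment over wild-type enrichment from inverse-variance-weighted replicate averages of Illumina-sequenced inputs and outputs, keeping genotypes with ≥10 input reads and ≥1 read per output.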

Variant	polymerase ribozyme fitness (log ratio)
G69U G135C	1.06
C22U C31G A50U C72G C82A A95G G107C	-5.28
G45C A84G	-1.49
U14G A91U A111G	-4.63
C15U C73U G77A C98A	-8.01
A16G G61A A74C U78G U112A	-4.17
C13A A27U C101U	-4.94
C72G U112A	0.104
G44C U81C U106A	-0.434
U9G G45C C79A U130C	-2.2
A27C G42U C104A C114A G128A	-7.58
A105U G113C	-5.86
U7A U9G C70U C73U C79G A84G U96C	-4.92
A50U U96A	-1.77
C56A U109C	-3.16
G48U C85G C89U	-0.48
C15A G47U C73A C115A A121C U133C	-5.41
A37G G63U U81A	-2.09
C56G C124A U131A	1.66
U78C G113U	-3.31
C13U G57A G69A G110U	-6.08

Variant	polymerase ribozyme fitness (log ratio)
C3U C40A C56U G120A	-0.0248
A2U C53G C76U U125G	-4.01
A5G C72A C73U U81G U106G A118U A121C	-5.16
C70U C82U	-1.59
G39U C70G G122A	-3.94
A6G A91C	-1.54
C8U A105C	-2.01
U54A C62U U96G	-0.523
U9A A46G C53G G113U	-1.54
C56A C104U G117A	-1.3
C11U A43U G61U G63C C72G C88A C89U A111U	-6.46
G47U G60A	-1.93
U7A C11A	-0.042
A27U A29G G122A	-3.63
C72U C80A U87C	-3.67
U9A G77U U131A	0.362
C102U U125G	-1.4
A6U A74C	0.0283
C49G C80U C85G	-2.11
C28A C80U A111G	-5.64
C34A G48A	-3.24

Variant	polymerase ribozyme fitness (log ratio)
C20U C86A	-2.3
G120A C123G	1.22
G47A C62A G120A U126A	-3.07
C56G G58U A90U	-1.92
A2U C4U G39C G44U G61A A83G C89U A121U	-2.89
G35A U92G A121G U125A	-5.24
C4A G69U G110A U112A G117A	-3.21
G58A U125A	-0.652
C3U C124G	2.17
G45C A68G U112A A118U	-4.16
G35A G117U	-5.09
C15G C20U C62A G117U	-3.55
G17U A84U	-2.44
C79A G120C	0.837
C8U C72A C76A	-1.75
G47U U87G G120A	-1.99
C11U C22G A83C	-4.06
U7A G10A C53U G61C	-0.31
G57U G69C	-0.847
A29G C115U	-1.56
C22A G42A C73A	-7.34

Variant	polymerase ribozyme fitness (log ratio)
G60A C72G U131A	-1.09
C56G C64U C79A	-1.17
G71A U81G A83U	-6.59
G48C G60U A74U C115U	-2.52
C62G A118G	-1.44
C86U U92C C115A C124A G127A	-1.31
C11G A50G C62U G110C	-4.81
C86G C98U	-1.59
A2G A5C C11A G71U C99U	-3.65
U55G C56U G117A G135C	-2.53
U21A G42A A46U G60A	-4.47
C11U C56A C82U C86G	-1.73
C12A C124A	1.83
A16G C40G C124A	0.0509
C15U C53U G61U C97U	-2.21
C56A C73A	-0.651
C20A G48U A50U G120U U132C	-4.56
C15G G36A	-4.46
U59G U78A	0.3
A29U G44U A111G C124G	-3.58
